Results published in US20170096492A1, “DOSAGE AND ADMINISTRATION OF ANTI-IGF-1R, ANTI-ErbB3 BISPECIFIC ANTIBODIES, USES THEREOF AND METHODS OF TREATMENT [sequence]” (Merrimack Pharmaceuticals, Inc., priority 2014, published 2017).
Entries after “also recorded” stand apart in the source; their conditions may differ.

Tests used:
[1] = system: patients with solid tumors; assay: Phase 1 dose escalation study, MM-141 monotherapy (Arm A): safety and disease response; type: in vivo, human
From the text: Adverse events that were reported with a frequency>15% included: vomiting (7/15), nausea (6/15), fatigue (4/15), abdominal pain (4/15), increased AP (4/15), dyspnea (4/15), diarrhea (3/15), anemia (3/15), increased AST (3/15), and rash (3/15). […] The safety, tolerability, PK and PD profiles support weekly and biweekly MM-141 dosing.

[2] = Phase 1 PK analysis of serum MM-141 (ELISA, non-compartmental); type: in vivo, human; details: range
Experimental: (§1) Serum for PK and PD analysis was prepared by drawing whole blood into red top tubes, clotting 30 minutes at 4-8° C. and spinning down in a refrigerated centrifuge. Serum was aliquotted and frozen immediately after centrifugation. PD analysis of total IGF-1 in serum was performed using Human IGF-I Quantikine® ELISA Kit (R&D Systems, Minneapolis, Minn.) according to the manufacturer's instructions. For the PK analysis, in brief, ELISA plates were plates were coated with IGF-1R (R&D Systems) in PBS and incubated overnight at 4° C. Plates were washed, blocked, and then samples and standards were added to plates and incubated for 2 hr at room temperature. Plates were washed and ErbB3-His was added for 1 hr at room temperature. Plates were washed and anti-His-HRP (Abeam, Cambridge, Mass.) was added for 1 hr at room temperature. Plates were developed using TMB and STOP solution and absorbance was read at 450 nm. PK parameters were analyzed using descriptive statistics including the median, mean and 95% confidence intervals around parameter estimates by dose level. All PK parameters included Cmax, Tmax, AUC (area under the concentration curve), clearance, volume of distribution at steady state (Vdss), and the terminal elimination half-life. Estimation of the PK parameters was performed using standard non-compartmental methods.

[3] = system: total IGF-1 in serum; assay: Phase 1 PD analysis of total IGF-1 in serum (Quantikine ELISA); type: in vivo, human
Experimental: as §1

[4] = system: hepatocellular carcinoma tumor biopsies; assay: Immunohistochemistry of pre- and post-treatment tumor biopsies (cohort 4D); type: in vivo, human; details: post- vs pre-treatment, MM-141 20 mg/kg weekly, sorafenib-refractory HCC
From the text: Formalin fixed, paraffin embedded biopsy samples were sectioned at 5 μm, processed and stained for IGF-1R (G11 clone detection antibody, Ventana) and ErbB3 (clone D22 antibody, Cell Signaling Technology).

[5] = system: CAKI-1 xenografts; assay: CAKI-1 xenograft PD, western blot; type: in vivo, mice
Experimental: For the PD study results shown in FIGS. 3A-B and FIGS. 5A-C, NOD/SCID female mice were inoculated with 12×10^6 CAKI-1 or 10×10^6 SK-ES-1 cells, respectively, in 1:1 Matrigel® suspension. […] Tumors were harvested 24 hours after the second dose of drug; lysates were generated and subjected to western blot analysis.

[6] = system: BxPC-3 pancreatic cancer cells; assay: CTG cell viability, paclitaxel with IGF-1 or HRG, three-dimensional cultures; type: cell-based, human
Experimental: (§2) The cell viability assay (FIGS. 7A-B and 8A-B) was carried out using a CellTiter-Glo® (CTG) assay (Promega), which determines the number of viable cells in a culture based on quantitation of the ATP present. In FIGS. 7A-B, BxPC-3 cells were grown in low serum alone or with exogenous IGF-1 or HRG added (0-50 nM). […] For the cell viability assays described in FIGS. 8(A-B), (FIG. 8A) BxPC-3 and (FIG. 8B) CFPAC-1 cells were cultured in low (2%) serum alone or with a combination of IGF-1 (50 nM) and HRG (10 nM).

[7] = system: BxPC-3 (KRAS wild type) pancreatic cancer cells; assay: CTG cell viability, gemcitabine or paclitaxel with IGF-1 and HRG, two-dimensional cultures; type: cell-based, human; details: IGF-1 50 nM and HRG 10 nM, 2% serum, MM-141 500 nM
Experimental: as §2

[8] = system: ovarian cancer cell lines (PEA1, PEA2, OvCAR8); assay: Growth-factor-induced proliferation, 3D in vitro assays (CTG); type: cell-based
[9] = system: CFPAC-1 pancreatic cancer cells; assay: pAKT (Ser473) ELISA after chemotherapy and ligand stimulation; type: cell-based, human; details: 24 hours
Experimental: (§3) CFPAC-1 pancreatic cancer cells were seeded at 65% confluence in 10% serum-containing medium on 96-well plates overnight. […] Following incubation, cells were treated with (FIG. 24A) HRG (5 nM) or (FIG. 24B) IGF-1 (50 nM) for 15 minutes, where indicated. After treatment, cells were harvested and protein lysates generated. Changes in pAKT (Ser473) levels across all treatments were evaluated by pAKT ELISA, respectively. FIGS. 24(A-B) are bar graphs showing pAKT levels relative to ligand alone stimulated signals, which were normalized to 1.
as §3, with “25A)” for “24A)”, “25B)” for “24B)”, “25(A-B)” for “24(A-B)”

[10] = system: CFPAC-1 pancreatic cancer cells; assay: Receptor ubiquitination, immunoprecipitation and immunoblotting; type: cell-based, human; details: 500 nM MM-141 20 minutes after 2 hours 1 μM epoxomicin
From the text: Cell lysates were immunoprecipitated (IP) with an IGF-1R (FIG. 33C) or ErbB3 (FIG. 33D) antibody, and then immunoblotted (IB) for IGF-1R, ErbB3, or ubiquitin protein (Ub) expression by western blotting.

[11] = patients with event / 15 patients dosed, all dose levels
[12] = single agent, MM-141 30 mpk i.p. or everolimus 10 mpk orally, 2 doses, tumors harvested 24 hours after second dose
[13] = MM-141 500 nM added to paclitaxel 50 nM

MM-141: polyvalent bispecific antibody P4-G1-M1.3, anti-IGF-1R and anti-ErbB3; heavy chain SEQ ID NO: 3, light chain SEQ ID NO: 4
dose-limiting toxicities ([1]; monotherapy 6, 12, 20 mg/kg q7d or 40 mg/kg q14d, 15 patients): No dose-limiting toxicities were observed; also recorded: No DLTs were observed | disease stabilization ([1]; patients with Ewing's Sarcoma (1) and parotid gland carcinoma (1)): Disease stabilization was observed | adverse events reported with a frequency>15%: abdominal pain [1, 11]: 4/15 | adverse events reported with a frequency>15%: anemia [1, 11]: 3/15 | adverse events reported with a frequency>15%: diarrhea [1, 11]: 3/15 | adverse events reported with a frequency>15%: dyspnea [1, 11]: 4/15 | adverse events reported with a frequency>15%: fatigue [1, 11]: 4/15 | adverse events reported with a frequency>15%: increased AP [1, 11]: 4/15 | adverse events reported with a frequency>15%: increased AST [1, 11]: 3/15 | adverse events reported with a frequency>15%: nausea [1, 11]: 6/15 | adverse events reported with a frequency>15%: rash [1, 11]: 3/15 | adverse events reported with a frequency>15%: vomiting [1, 11]: 7/15 | Half-lives ([2]; 6 mg/kg q7d): 2.4 to 6.3 days | Half-lives ([2]; 12 mg/kg q7d): 2.1 to 2.9 days | Half-lives ([2]; 20 mg/kg q7d): 3.3 to 3.4 days | Half-lives ([2]; 40 mg/kg q14d): 3.2 to 9.9 days | increase in serum total IGF-1 ([3]; 6 mg/kg cohort): approximately two-fold in 1/3 patient samples | increase in serum total IGF-1 ([3]; 12 mg/kg cohort): approximately two-fold in 1/3 patient samples | increase in serum total IGF-1 ([3]; 20 mg/kg, all patient samples): approximately a two-fold increase | increase in serum total IGF-1 ([3]; 40 mg/kg, all patient samples): approximately two to four fold increases | ErbB3 level in tumor biopsy [4]: decreased; also recorded: Down-regulation | IGF-1R level in tumor biopsy [4]: decreased; also recorded: Down-regulation | everolimus-induced upregulation of IGF-1R and ErbB2 (resistance mechanism) ([5]; MM-141 30 mpk i.p. co-administered with everolimus 10 mpk orally): resistance mechanism was inhibited | total ErbB2 [5, 12]: down regulation | total IGF-1R [5, 12]: down regulation | sensitivity to cytotoxic properties of paclitaxel in a high IGF-1 setting [6, 13]: re-sensitize cells | sensitivity to cytotoxic properties of paclitaxel in the presence of high HRG [6, 13]: re-sensitize cells | resistance to cytotoxic effect of paclitaxel caused by IGF-1 or heregulin ([6]; paclitaxel 50 nM, IGF-1 or HRG 0-50 nM, MM-141 500 nM): resistance was reversed | resistance to cytotoxic effect of gemcitabine and paclitaxel caused by combination of IGF-1 and HRG [7]: resistance was reversed | IGF-1 and HRG growth-factor-induced proliferation [8]: blocks | gemcitabine-induced increased sensitivity to HRG and IGF-1, pAKT (Ser473) ([9]; MM-141 500 nM with gemcitabine 1 μM): this effect is blocked | paclitaxel-induced increased sensitivity to IGF-1, pAKT (Ser473) ([9]; MM-141 500 nM with paclitaxel 100 nM): this effect is blocked | IGF-1R and ErbB3 receptor ubiquitination [10]: induction of ubiquitination; also recorded: enhanced receptor ubiquitination
